# In IntAct's records for PubMed 26416881:
# B1: MICOS complex subunit MIC19 (Saccharomyces cerevisiae), P43594 (parent)
# chain: MGSNTSKVGAGAEKQQVYTPLTQIDFSQSLVSQLDSSKESDYVTKQNAEKFIEKKVSQRLSNLEVETLKKFEDTLNNSLLSDDDKDAVDGISSSSLNNQIESLNKKLTLFDQLELQKLEKYGGAKGKSDKKTDNGSISIKAKLTECLLANKGKPLNCYEEMEEFKKLVMG
# partner: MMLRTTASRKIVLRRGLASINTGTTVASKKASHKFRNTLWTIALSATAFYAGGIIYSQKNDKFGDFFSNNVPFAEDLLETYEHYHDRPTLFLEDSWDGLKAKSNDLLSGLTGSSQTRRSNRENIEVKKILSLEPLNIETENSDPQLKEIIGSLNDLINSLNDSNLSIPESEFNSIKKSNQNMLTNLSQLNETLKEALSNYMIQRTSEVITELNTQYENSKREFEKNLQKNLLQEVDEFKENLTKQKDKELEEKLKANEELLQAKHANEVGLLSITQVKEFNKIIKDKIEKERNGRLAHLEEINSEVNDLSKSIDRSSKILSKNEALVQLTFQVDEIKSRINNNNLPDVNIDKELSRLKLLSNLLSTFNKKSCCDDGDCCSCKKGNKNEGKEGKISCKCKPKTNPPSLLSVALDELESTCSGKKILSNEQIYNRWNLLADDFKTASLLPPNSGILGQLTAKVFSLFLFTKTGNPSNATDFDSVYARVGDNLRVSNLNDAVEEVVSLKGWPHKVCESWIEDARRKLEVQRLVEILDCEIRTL
# Variants of: B1
# Settings: with mic60_yeast MIC60, P36112
row,Variant,effect of a mutation on the interaction
1,MGSNTSKVGAGAEKQQVYTPLTQIDFSQSLVSQLDSSKESDYVTKQNAEKFIEKKVSQRLSNLEVETLKKFEDTLNNSLLSDDDKDAVDGISSSSLNNQIESLNKKLTLFDQLELQKLEKYGGAKGKSDKKTDNGSISIKAKLTESLLANKGKPLNCYEEMEEFKKLVMG [C146S],with no effect
2,MGSNTSKVGAGAEKQQVYTPLTQIDFSQSLVSQLDSSKESDYVTKQNAEKFIEKKVSQRLSNLEVETLKKFEDTLNNSLLSDDDKDAVDGISSSSLNNQIESLNKKLTLFDQLELQKLEKYGGAKGKSDKKTDNGSISIKAKLTECLLANKGKPLNSYEEMEEFKKLVMG [C157S],decreasing interaction strength
